# Data as given in US20240309076A1.
# B1: NI-502.4P3 (antibody, V domains shown)
# VH: EVQLVQSGAEVKKPGESLKISCKVSGYDFSKYWIGWVRQMPGKGLEWMGLIYPGDSDTRYSPSLEGQVSISADKSISAAYLQFSSLKASDSAMYYCVRKGYSAYLGGWFDPWGQGTLVTVSS
# VL: DIQLTQSPDSLAASLGERVTINCRSSQNIFYNSNNKNFLAWYQQKAGQSPKLLIYWASTRESGVPDRFSGSGSGTDFTLTISGLQAGDVAVYFCQQYFTDAPTFGGGTKVEIK
# Molecular target: recombinant full-length human Tau (human) (UniProt P10636)
# Assay: indirect ELISA, Tau coated on the plate
binder,measurement,value
B1,EC50,15 nM
